# Patent US20230183713A1, “SITE-SPECIFIC RECOMBINASES FOR EFFICIENT AND SPECIFIC GENOME EDITING” (TECHNISCHE UNIVERSITÄt DRESDEN, published 2023)
# B1: loxP (dsDNA)
# DNA 1: ATAACTTCGTATAATGTATGCTATACGAAGTTAT
# DNA 2: ATAACTTCGTATAGCATACATTATACGAAGTTAT
# Experiments:
# Experiment in all cases: cell_activity; E. coli plasmid assay, median
# Settings in all cases: chain copies: 2
# Cre K201A + Cre Q311R = Cre K201A + Cre Q311R (UniProt P06956;P06956 SEQ:1-343,SEQ:1-343, K201A (first monomer))
# Experimental: (§1) To generate further obligate recombinases, additional single mutations in the catalytic region (i.e. at amino acid positions 129-136, 163-181, 199-211, 289-301, 310-316 and 321-324 of SEQ ID NO: 1, cf. FIG. 17A, dark regions) of the recombination synapse of the Cre recombinase (Guo et al. 1997, Lee et al. 2002, Gibb et al. 2010, Meinke et al. 2016) were introduced as outlined in Table 6 below. […] Recombination activity of the recombinases on loxP was measured by a plasmid-based assay as previously described (6, 9, 10). in the experiments, the recombined pEVO is smaller in size compared to the non-recombined pEVO. […] These two different fragments can either be distinguished by gel electrophoresis or by sequencing. The recombination efficiencies (indicated as dimer and monomer acitivty, respectively) were calculated based on the ratio of recombined and non-recombined substrate using the following formula: Recombination activity (%)=100×(recombined substrate/(recombined+non-recombined substrates)).
# Cre E129R + Cre Q311R = Cre E129R + Cre Q311R (UniProt P06956;P06956 SEQ:1-343,SEQ:1-343, E129R (first monomer))
# Experimental: as §1
# Cre H289D + Cre Q311R = Cre H289D + Cre Q311R (UniProt P06956;P06956 SEQ:1-343,SEQ:1-343, H289D (first monomer))
# Experimental: as §1
# Cre H289W + Cre W315C = Cre H289W + Cre W315C (UniProt P06956;P06956 SEQ:1-343,SEQ:1-343, H289W (first monomer); W315C (second monomer))
# Experimental: as §1
# Cre R292G + Cre Q311R = Cre R292G + Cre Q311R (UniProt P06956;P06956 SEQ:1-343,SEQ:1-343, R292G (first monomer))
# Experimental: as §1
# Cre Q311R + Cre Y324I = Cre Q311R + Cre Y324I (UniProt P06956;P06956 SEQ:1-343,SEQ:1-343, Y324I (second monomer))
# Experimental: as §1
# Cre W315K + Cre Y324K = Cre W315K + Cre Y324K (UniProt P06956;P06956 SEQ:1-343,SEQ:1-343, W315K (first monomer); Y324K (second monomer))
# Experimental: as §1
# Cre E176W + Cre Q311R = Cre E176W + Cre Q311R (UniProt P06956;P06956 SEQ:1-343,SEQ:1-343, E176W (first monomer))
# Experimental: as §1
# Cre Q133H + Cre Q311R = Cre Q133H + Cre Q311R (UniProt P06956;P06956 SEQ:1-343,SEQ:1-343, Q133H (first monomer))
# Experimental: as §1
# Cre R173G + Cre K201Y = Cre R173G + Cre K201Y (UniProt P06956;P06956 SEQ:1-343,SEQ:1-343, R173G (first monomer); K201Y (second monomer))
# Experimental: as §1
# Cre R173S + Cre Q311R = Cre R173S + Cre Q311R (UniProt P06956;P06956 SEQ:1-343,SEQ:1-343, R173S (first monomer))
# Experimental: as §1
# Cre R292F + Cre Q311R = Cre R292F + Cre Q311R (UniProt P06956;P06956 SEQ:1-343,SEQ:1-343, R292F (first monomer))
# Experimental: as §1
# Cre W315Q + Cre Y324V = Cre W315Q + Cre Y324V (UniProt P06956;P06956 SEQ:1-343,SEQ:1-343, W315Q (first monomer); Y324V (second monomer))
# Experimental: as §1
# Cre E129R + Cre K201R = Cre E129R + Cre K201R (UniProt P06956;P06956 SEQ:1-343,SEQ:1-343, E129R (first monomer))
# Experimental: as §1
# Cre R173A + Cre Q311R = Cre R173A + Cre Q311R (UniProt P06956;P06956 SEQ:1-343,SEQ:1-343, R173A (first monomer))
# Experimental: as §1
# Cre K201F + Cre Y324C = Cre K201F + Cre Y324C (UniProt P06956;P06956 SEQ:1-343,SEQ:1-343, K201F (first monomer); Y324C (second monomer))
# Experimental: as §1
# Cre E176I + Cre Q311R = Cre E176I + Cre Q311R (UniProt P06956;P06956 SEQ:1-343,SEQ:1-343, E176I (first monomer))
# Experimental: as §1
# Cre Q311R + Cre W315S = Cre Q311R + Cre W315S (UniProt P06956;P06956 SEQ:1-343,SEQ:1-343, W315S (second monomer))
# Experimental: as §1
# Cre K201M + Cre K201R = Cre K201M + Cre K201R (UniProt P06956;P06956 SEQ:1-343,SEQ:1-343, K201M (first monomer))
# Experimental: as §1
# Cre Q311R + Cre W315M = Cre Q311R + Cre W315M (UniProt P06956;P06956 SEQ:1-343,SEQ:1-343, W315M (second monomer))
# Experimental: as §1
# Cre R173F + Cre E176V = Cre R173F + Cre E176V (UniProt P06956;P06956 SEQ:1-343,SEQ:1-343, R173F (first monomer); E176V (second monomer))
# Experimental: as §1
# Cre Q311R + Cre Y324F = Cre Q311R + Cre Y324F (UniProt P06956;P06956 SEQ:1-343,SEQ:1-343, Y324F (second monomer))
# Experimental: as §1
# Cre R292Y + Cre Y324M = Cre R292Y + Cre Y324M (UniProt P06956;P06956 SEQ:1-343,SEQ:1-343, R292Y (first monomer); Y324M (second monomer))
# Experimental: as §1
binder,measurement,setting,value
B1,activity,Cre K201A + Cre Q311R,95 % recombined
same,activity,Cre E129R + Cre Q311R,93 % recombined
same,activity,Cre H289D + Cre Q311R,97 % recombined
same,activity,Cre H289W + Cre W315C,87 % recombined
same,activity,Cre R292G + Cre Q311R,97 % recombined
same,activity,Cre Q311R + Cre Y324I,96 % recombined
same,activity,Cre W315K + Cre Y324K,99 % recombined
same,activity,Cre E176W + Cre Q311R,90 % recombined
same,activity,Cre Q133H + Cre Q311R,96 % recombined
same,activity,Cre R173G + Cre K201Y,95 % recombined
same,activity,Cre R173S + Cre Q311R,97 % recombined
same,activity,Cre R292F + Cre Q311R,42 % recombined
same,activity,Cre W315Q + Cre Y324V,97 % recombined
same,activity,Cre E129R + Cre K201R,26 % recombined
same,activity,Cre R173A + Cre Q311R,93 % recombined
same,activity,Cre K201F + Cre Y324C,98 % recombined
same,activity,Cre E176I + Cre Q311R,36 % recombined
same,activity,Cre Q311R + Cre W315S,37 % recombined
same,activity,Cre K201M + Cre K201R,76 % recombined
same,activity,Cre Q311R + Cre W315M,95 % recombined
same,activity,Cre R173F + Cre E176V,82 % recombined
same,activity,Cre Q311R + Cre Y324F,95 % recombined
same,activity,Cre R292Y + Cre Y324M,90 % recombined
